Results taken from paper PMC314469, “Protein Interaction Networks by Proteome Peptide Scanning” (PLoS Biology, 2004).

T1: Yfr024 SH3 (LSB3_YEAST), P43603
T1 chain: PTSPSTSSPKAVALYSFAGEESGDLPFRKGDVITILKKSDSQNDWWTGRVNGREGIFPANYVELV

T2: Boi2 SH3 (BOI2_YEAST), P39969
T2 chain: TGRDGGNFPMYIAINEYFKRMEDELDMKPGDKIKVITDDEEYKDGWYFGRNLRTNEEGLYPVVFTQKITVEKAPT

T3: Yhr016c SH3 (YSC84_YEAST), P32793
T3 chain: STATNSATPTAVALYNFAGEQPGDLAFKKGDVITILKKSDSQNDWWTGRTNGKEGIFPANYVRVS

T4: Rvs167 SH3 (RV167_YEAST), P39743
T4 chain: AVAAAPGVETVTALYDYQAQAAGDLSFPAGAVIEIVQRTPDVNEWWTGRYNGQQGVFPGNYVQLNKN

T5: Boi1 SH3 (BOI1_YEAST), P38041
T5 chain: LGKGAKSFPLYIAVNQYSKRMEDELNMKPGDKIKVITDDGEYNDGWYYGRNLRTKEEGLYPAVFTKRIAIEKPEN

T6: amphyphisin SH3 (AMPH_HUMAN), P49418
T6 chain: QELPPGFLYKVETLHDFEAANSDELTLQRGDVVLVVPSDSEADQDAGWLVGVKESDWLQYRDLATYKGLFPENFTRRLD


Experiments:
Test in all cases: SPOT array
[1] = molecular target: T1, Yfr024 SH3 (LSB3_YEAST), P43603
[2] = molecular target: T2, Boi2 SH3 (BOI2_YEAST), P39969
[3] = molecular target: T3, Yhr016c SH3 (YSC84_YEAST), P32793
[4] = molecular target: T4, Rvs167 SH3 (RV167_YEAST), P39743
[5] = molecular target: T5, Boi1 SH3 (BOI1_YEAST), P38041
[6] = molecular target: T6, amphyphisin SH3 (AMPH_HUMAN), P49418
[7] = molecular target: endophilin SH3 (SH3G2_HUMAN), Q99962

| normalised SPOT signal, Boehringer light units (BLU); mean over the file's lines of this peptide [1] | normalised SPOT signal, Boehringer light units (BLU); mean over the file's lines of this peptide [2] | normalised SPOT signal, Boehringer light units (BLU); mean over the file's lines of this peptide [3] | normalised SPOT signal, Boehringer light units (BLU); mean over the file's lines of this peptide [4] | normalised SPOT signal, Boehringer light units (BLU); mean over the file's lines of this peptide [5] | normalised SPOT signal, Boehringer light units (BLU); mean over the file's lines of this peptide [6] | normalised SPOT signal, Boehringer light units (BLU); mean over the file's lines of this peptide [7] | Binder |
| --- | --- | --- | --- | --- | --- | --- | --- |
| 417 | 72.2 | 770 | 128 | 109 | – | – | NLKPFHPPKEKSMN [YPL159C 186-199] |
| 14200 | 42.3 | 12200 | 1190 | 180 | – | – | NPPPVPPPRNVTAM [YNL176C 548-561] |
| 4070 | 52.6 | 1350 | 805 | 103 | – | – | NLKPERPSKVSFEM [YEL062W 548-561] |
| 1730 | 99.5 | 172 | 188 | 63.6 | – | – | NKIPPKPRKVLQLL [YGL076C 93-106] |
| 292 | 96.2 | 234 | 91.3 | 51.4 | – | – | NRKPAEPTKPNNLD [YML075C 1024-1037] |
| 194 | 27.9 | 272 | 3.8 | 69.3 | – | – | NNTPIVPEKFSNDL [YKR004C 249-262] |
| 282 | 65.1 | 442 | 69.2 | 42.6 | – | – | NSSPMSPLKEKYVL [YOR299W 430-443] |
| 25.1 | 14.5 | 208 | 37.7 | 115 | – | – | NQAPLEPLKPTATG [YIR006C 229-242] |
| 19500 | 760 | 5920 | 915 | 13200 | – | – | NIQPNIPLRSYRYL [YHL023C 782-795] |
| 424 | 27.3 | 74.1 | 26.5 | 44.6 | – | – | NNGPKIPQKNTIDS [YKR029C 581-594] |
| 40800 | 62.5 | 45600 | 19800 | 2740 | – | – | NNAPTLPKRKNPKI [YPR055W 477-490] |

The remaining lines, values behind:

| Binder | normalised SPOT signal, Boehringer light units (BLU); mean over the file's lines of this peptide [1] | normalised SPOT signal, Boehringer light units (BLU); mean over the file's lines of this peptide [2] | normalised SPOT signal, Boehringer light units (BLU); mean over the file's lines of this peptide [3] | normalised SPOT signal, Boehringer light units (BLU); mean over the file's lines of this peptide [4] | normalised SPOT signal, Boehringer light units (BLU); mean over the file's lines of this peptide [5] | normalised SPOT signal, Boehringer light units (BLU); mean over the file's lines of this peptide [6] | normalised SPOT signal, Boehringer light units (BLU); mean over the file's lines of this peptide [7] |
| --- | --- | --- | --- | --- | --- | --- | --- |
| NIQPDLPPRKIMIP [YBR239C 90-103] | 27200 | 111 | 56900 | 33000 | 1500 | – | – |
| NMVPLNPNRIIPDE [YDR499W 189-202] | 1110 | 143 | 504 | 340 | 31.3 | – | – |
| NNNPVPPQKINQPP [YDL203C 198-211] | 212 | 43.4 | 20.2 | 46.9 | 21.2 | – | – |
| NSLPSSPKKQPARN [YCL063W 173-186] | 331 | 31.8 | 199 | 211 | 57.1 | – | – |
| GDAPPPRPPPPVRP [CAD38936 189-203] | – | – | – | – | – | 1250 | 14700 |
| GDEPLPRPPRGAPH [Q92529 130-143] | – | – | – | – | – | 155 | 253 |
| GDSKLFRPRRPRSS [O94820 218-231] | – | – | – | – | – | 970 | 233 |
| GDPAPSRPLRAHFL [Q9P244 448-461] | – | – | – | – | – | 9150 | 5050 |
| NLDPNPPVRGENLT [YDL046W 61-74] | 118 | 18.3 | 315 | 26.6 | 81.4 | – | – |
| NKVPTNPKKFKKAP [YDR181C 326-339] | 178 | 70.3 | 210 | 20.2 | 126 | – | – |
| GAWPLKRPGRISSQ [Q9NXX3 159-172] | – | – | – | – | – | 1500 | 213 |
| GSVRPARPERRLRS [Q9Y5B0 72-85] | – | – | – | – | – | 12500 | 18700 |
| GEDVLARPQRFAQL [Q96LA8 243-256] | – | – | – | – | – | 194 | 7.6 |
